Measurements published in US20240279630, “ISOLATED CAS13 PROTEIN AND USE THEREOF” (GUANGZHOU REFORGENE MEDICINE CO., LTD., published 2024).

Assays:
Assay in all cases: cell_activity; reversed DR/guide order
Details in all cases: tags: NLS fusion
[1] = molecular target: T1, Cas13m.2 (metagenome)
T1 chain: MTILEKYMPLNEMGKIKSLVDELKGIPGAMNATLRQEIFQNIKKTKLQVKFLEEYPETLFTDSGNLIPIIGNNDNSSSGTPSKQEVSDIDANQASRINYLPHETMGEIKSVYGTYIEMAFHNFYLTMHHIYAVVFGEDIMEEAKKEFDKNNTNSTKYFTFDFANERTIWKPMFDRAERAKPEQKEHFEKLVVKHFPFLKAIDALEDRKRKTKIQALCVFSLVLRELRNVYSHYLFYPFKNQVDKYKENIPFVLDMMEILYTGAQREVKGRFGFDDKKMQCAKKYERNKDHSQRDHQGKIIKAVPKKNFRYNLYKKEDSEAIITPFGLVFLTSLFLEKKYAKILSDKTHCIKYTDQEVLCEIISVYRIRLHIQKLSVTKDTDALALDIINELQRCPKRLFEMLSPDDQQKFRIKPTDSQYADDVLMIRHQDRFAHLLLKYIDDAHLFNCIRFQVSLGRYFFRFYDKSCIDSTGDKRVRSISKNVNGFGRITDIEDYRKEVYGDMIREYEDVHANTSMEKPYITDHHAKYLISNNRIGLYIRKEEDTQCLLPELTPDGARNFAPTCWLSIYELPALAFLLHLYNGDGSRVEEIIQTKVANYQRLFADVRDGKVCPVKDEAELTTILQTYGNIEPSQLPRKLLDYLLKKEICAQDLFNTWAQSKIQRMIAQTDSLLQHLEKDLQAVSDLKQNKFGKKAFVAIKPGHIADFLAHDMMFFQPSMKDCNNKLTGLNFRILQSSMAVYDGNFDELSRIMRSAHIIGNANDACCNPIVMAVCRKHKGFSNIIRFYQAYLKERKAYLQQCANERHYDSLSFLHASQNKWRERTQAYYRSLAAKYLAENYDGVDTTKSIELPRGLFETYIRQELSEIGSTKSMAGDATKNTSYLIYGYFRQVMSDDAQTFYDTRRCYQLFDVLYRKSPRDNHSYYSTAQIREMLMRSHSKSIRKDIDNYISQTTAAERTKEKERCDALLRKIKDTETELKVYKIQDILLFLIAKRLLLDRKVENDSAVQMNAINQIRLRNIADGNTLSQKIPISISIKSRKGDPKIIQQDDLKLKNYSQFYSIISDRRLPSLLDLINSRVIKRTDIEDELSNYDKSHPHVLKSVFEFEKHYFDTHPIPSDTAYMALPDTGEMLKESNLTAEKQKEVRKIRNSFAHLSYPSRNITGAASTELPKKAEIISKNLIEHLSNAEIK
Method: (§1) 293T-AQp1 cells were transfected with the verification vectors targeting the endogenous gene AQp1 mRNA of Cas13 m.2, Cas13 m.3, Cas13 m.5, CasRfg.2, Cas13 m.2-r, Cas13 m.3-r, Cas13 m.5-r, and CasRfg.2-r, and a control plasmid (which was the same as the verification vector plasmid targeting the endogenous gene AQp1 mRNA of CasRx in the aforementioned Example 5) at 800 ng in a 24-well plate. The negative control group was transfected with the CasRx-BpiI plasmid in the aforementioned Example 5.
(§2) The transfection method was as follows: [0296] 1. The cells were digested by trypsin (0.25% of Trypsin, EDTA, Thermo, 11058021), counted, and plated into a 24-well plates at 2×10⁵ cells according to 500 uL per well. [0297] 2. For each transfected sample, the complex was prepared according to the following steps: [0298] a. each well of the 24-well plate into which the cells were added, were added with 50 uL of serum-free Opti-MEM I (Thermo, 25200056) reduced serum medium for dilution of the aforementioned plasmid DNA, and mixed gently; [0299] b. it was gently mixed with Lipofectamine 2000 (Thermo, 11668019) before use, and then 1.8 uL of the Lipofectamine 2000 was diluted in each well, i.e., in 50 uL of the Opti-MEM I medium. It was incubated at room temperature for 5 minutes. Note: it was continued to perform step c within 25 minutes; [0300] c. after incubation for 5 minutes, the diluted DNA was combined with the diluted Lipofectamine 2000. They were gently mixed and incubated at room temperature for 20 minutes (the solution might be cloudy visually). Note: the complex was stabilized at room temperature for 6 hours.
(§3) At 72 h after transfection, the cells were subjected to RNA extraction with a SteadyPure Universal RNA Extraction Kit AG21017 kit, and the RNA concentration was detected with an ultramicro spectrophotometer. The RNA product was reverse transcribed by using an Evo M-MLV Mix Kit with gDNA Clean for qPCR AG11728 reverse transcription kit, and the reverse transcribed product was detected by using a SYBR Green Premix Pro Taq HS qPCR Kit (Low Rox Plus) AG11720 qPCR kit.

[2] = molecular target: T2, CasRfg.2 (Cas13d) (metagenome)
T2 chain: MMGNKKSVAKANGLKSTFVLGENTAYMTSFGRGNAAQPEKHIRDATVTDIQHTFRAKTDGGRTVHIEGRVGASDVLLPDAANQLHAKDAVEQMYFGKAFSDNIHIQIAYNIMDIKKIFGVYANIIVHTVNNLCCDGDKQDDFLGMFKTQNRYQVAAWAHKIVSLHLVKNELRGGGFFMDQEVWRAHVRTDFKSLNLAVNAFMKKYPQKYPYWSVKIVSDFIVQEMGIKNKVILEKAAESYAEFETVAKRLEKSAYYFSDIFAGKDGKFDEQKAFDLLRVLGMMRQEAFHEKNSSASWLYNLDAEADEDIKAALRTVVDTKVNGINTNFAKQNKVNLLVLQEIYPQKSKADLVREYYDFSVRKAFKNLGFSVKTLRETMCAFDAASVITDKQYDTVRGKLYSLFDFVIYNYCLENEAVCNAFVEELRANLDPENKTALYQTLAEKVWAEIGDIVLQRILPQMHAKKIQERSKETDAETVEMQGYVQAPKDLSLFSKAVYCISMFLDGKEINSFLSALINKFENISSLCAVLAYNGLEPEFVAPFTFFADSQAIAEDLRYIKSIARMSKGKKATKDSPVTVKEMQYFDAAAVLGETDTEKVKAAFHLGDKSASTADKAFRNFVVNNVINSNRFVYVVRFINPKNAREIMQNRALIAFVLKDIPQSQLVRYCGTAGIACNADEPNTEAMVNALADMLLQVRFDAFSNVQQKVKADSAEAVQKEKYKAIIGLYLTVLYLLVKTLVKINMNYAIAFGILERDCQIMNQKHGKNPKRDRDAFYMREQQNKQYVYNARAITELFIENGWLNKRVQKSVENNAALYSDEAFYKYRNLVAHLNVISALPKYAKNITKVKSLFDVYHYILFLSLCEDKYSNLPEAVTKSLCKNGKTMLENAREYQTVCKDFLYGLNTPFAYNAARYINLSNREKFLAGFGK
Method: as §1, §2, §3

[3] = molecular target: T3, Cas13m.5 (Bacteroidetes bacterium)
T3 chain: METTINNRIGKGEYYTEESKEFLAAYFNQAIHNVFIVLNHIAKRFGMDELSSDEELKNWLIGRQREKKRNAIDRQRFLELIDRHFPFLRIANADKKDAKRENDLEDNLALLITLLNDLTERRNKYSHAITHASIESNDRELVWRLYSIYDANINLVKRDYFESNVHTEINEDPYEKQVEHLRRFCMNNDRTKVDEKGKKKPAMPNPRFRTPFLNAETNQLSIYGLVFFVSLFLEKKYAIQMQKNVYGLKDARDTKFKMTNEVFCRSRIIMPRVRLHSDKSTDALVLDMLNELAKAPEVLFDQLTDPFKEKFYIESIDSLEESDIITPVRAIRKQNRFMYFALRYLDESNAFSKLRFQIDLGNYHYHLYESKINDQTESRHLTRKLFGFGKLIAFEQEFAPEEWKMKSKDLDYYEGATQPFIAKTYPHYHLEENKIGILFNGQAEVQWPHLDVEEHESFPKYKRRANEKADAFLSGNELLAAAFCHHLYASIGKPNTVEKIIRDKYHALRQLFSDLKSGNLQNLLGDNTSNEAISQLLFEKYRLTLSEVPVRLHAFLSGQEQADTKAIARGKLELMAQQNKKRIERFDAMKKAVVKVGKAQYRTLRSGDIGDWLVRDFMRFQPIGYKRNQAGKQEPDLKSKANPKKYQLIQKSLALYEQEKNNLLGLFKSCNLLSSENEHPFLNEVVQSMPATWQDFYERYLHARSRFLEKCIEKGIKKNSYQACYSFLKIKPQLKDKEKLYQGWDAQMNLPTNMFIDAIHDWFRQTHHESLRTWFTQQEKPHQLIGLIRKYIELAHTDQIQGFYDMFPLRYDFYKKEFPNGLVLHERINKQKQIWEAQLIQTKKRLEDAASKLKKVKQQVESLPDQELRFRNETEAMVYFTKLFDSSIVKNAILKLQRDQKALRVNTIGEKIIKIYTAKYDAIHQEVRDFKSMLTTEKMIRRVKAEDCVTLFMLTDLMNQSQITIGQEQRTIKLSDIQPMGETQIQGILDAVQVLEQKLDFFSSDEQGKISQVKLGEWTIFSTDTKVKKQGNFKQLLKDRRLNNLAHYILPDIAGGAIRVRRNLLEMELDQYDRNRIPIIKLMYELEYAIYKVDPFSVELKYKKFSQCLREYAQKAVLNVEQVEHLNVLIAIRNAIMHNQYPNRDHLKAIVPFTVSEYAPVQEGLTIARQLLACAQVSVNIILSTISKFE
Method: as §1, §2, §3

[4] = molecular target: T4, Cas13m.3 (uncultured Bacteroidetes bacterium)
T4 chain: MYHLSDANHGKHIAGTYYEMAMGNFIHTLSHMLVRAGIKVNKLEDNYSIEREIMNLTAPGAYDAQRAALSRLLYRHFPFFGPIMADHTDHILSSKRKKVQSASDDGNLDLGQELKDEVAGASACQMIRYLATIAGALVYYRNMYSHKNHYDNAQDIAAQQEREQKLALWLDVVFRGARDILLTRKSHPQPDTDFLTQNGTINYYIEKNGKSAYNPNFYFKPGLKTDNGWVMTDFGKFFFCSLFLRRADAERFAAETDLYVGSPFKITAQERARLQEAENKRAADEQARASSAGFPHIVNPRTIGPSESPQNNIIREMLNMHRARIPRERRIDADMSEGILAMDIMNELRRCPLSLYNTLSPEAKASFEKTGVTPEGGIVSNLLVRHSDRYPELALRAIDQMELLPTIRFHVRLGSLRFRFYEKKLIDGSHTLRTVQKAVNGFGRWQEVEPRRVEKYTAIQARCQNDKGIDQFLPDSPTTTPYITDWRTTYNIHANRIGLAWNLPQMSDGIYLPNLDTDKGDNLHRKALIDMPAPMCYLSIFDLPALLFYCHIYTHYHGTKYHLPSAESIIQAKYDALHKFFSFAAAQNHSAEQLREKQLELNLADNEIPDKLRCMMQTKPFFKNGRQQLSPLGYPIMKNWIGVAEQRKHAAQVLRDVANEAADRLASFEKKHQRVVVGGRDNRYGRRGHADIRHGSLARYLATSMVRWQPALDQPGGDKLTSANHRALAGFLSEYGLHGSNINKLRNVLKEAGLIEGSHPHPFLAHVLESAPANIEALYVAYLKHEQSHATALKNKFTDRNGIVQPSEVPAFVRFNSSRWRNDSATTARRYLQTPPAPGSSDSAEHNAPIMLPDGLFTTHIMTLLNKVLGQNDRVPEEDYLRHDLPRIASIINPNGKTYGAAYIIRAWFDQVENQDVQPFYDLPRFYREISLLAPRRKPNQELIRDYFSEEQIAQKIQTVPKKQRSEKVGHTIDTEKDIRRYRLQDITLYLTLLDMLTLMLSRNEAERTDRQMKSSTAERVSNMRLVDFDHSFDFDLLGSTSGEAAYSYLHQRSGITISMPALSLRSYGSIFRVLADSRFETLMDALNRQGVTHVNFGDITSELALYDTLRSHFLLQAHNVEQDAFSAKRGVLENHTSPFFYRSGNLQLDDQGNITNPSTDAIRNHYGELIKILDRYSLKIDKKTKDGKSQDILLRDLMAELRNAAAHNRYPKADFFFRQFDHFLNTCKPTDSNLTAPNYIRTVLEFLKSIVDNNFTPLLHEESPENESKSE
Method: as §1, §2, §3

B1: AQp1 gRNA Cas13m.2-r (DR-guide) ; AQp1 mRNA site (20 nt guide) (ssRNA ; ssRNA)
RNA 1: GUUGUAGAUGACCUCGUUUUGGAGGGGAAACACAACGAAGACAAAGAGGGUCGUGG
RNA 2: CCACGACCCUCUUUGUCUUC
activity [1]: 0.83 relative mRNA level

B2: AQp1 gRNA CasRfg.2-r (guide-DR) ; AQp1 mRNA site (20 nt guide) (ssRNA ; ssRNA)
RNA 1: GAAGACAAAGAGGGUCGUGGGGUUUUACACCCGUGUAAAACUACACAGUUCUAAAAC
RNA 2: CCACGACCCUCUUUGUCUUC
activity [2]: 0.67 relative mRNA level

B3: AQp1 gRNA Cas13m.5-r (DR-guide) ; AQp1 mRNA site (20 nt guide) (ssRNA ; ssRNA)
RNA 1: GUUGUGUGUGCCUUUCAAAUUGAAGGCGUUCCCAACGAAGACAAAGAGGGUCGUGG
RNA 2: CCACGACCCUCUUUGUCUUC
activity [3]: 0.74 relative mRNA level

B4: AQp1 gRNA Cas13m.3-r (DR-guide) ; AQp1 mRNA site (20 nt guide) (ssRNA ; ssRNA)
RNA 1: GUUGUAGAAGCCGUUCAUUCGGGACGGUAUGACAACGAAGACAAAGAGGGUCGUGG
RNA 2: CCACGACCCUCUUUGUCUUC
activity [4]: 0.78 relative mRNA level
